B1: PRE 12 (peptide)
peptide: Ac-KDAQNLI-NH2
notes: Ac-KDAQNLI-NH2; also called peptide PRE 12
B2: PRE 13 (peptide)
peptide: Ac-RDAQNLI-NH2
notes: Ac-RDAQNLI-NH2; also called peptide PRE 13

Each binder was assayed against T1, PKC-βI (purified isoform) (Homo sapiens (Human), UniProt P05771 2-671) (assay: competitive ELISA, coated purified PKC-βI, vs anti-PKC βI (SC-209); PRE 100 µM).
T1 construct: also called PKC-beta I; PKC beta 1
T1 sequence (P05771 2-671 limits assumed): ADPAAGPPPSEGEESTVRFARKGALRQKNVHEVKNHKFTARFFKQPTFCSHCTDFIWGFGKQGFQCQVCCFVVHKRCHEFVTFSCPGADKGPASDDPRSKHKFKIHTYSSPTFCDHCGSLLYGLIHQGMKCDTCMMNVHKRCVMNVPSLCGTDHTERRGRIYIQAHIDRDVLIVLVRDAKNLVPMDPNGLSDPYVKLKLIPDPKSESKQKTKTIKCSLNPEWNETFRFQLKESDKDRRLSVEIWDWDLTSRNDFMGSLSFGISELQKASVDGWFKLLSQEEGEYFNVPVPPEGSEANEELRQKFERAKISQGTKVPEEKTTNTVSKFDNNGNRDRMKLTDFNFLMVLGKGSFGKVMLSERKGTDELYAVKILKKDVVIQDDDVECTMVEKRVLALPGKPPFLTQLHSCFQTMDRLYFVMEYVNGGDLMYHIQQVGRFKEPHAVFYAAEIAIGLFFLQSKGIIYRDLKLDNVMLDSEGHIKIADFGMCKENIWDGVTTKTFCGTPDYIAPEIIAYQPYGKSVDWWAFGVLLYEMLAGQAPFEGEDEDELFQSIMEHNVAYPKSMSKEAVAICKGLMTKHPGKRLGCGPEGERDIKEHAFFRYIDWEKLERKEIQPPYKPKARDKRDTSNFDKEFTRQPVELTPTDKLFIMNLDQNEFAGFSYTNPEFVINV
Method: (§1) Greiner 96 well ELISA plates were coated with the appropriate PKC isoform diluted in PBSN (PBS with Calcium/Magnesium+0.05% Sodium azide w/w). 50 μL/well at 250 ng/mL was used. Control wells contained PBSN only. Plates were incubated overnight at 4° C.
(§2) The plates were washed 3 times with 200 μL of dH₂O per well, then 100 μL of blocking solution was added per well and the plate incubated for 1 h at 37° C. The washing steps with dH₂O were repeated and 50 μL of the appropriate PRE solution (PRE stock solution [20 mM in DMSO] diluted in PBSN) was added and the plate incubated for 1 h at room temperature.
(§3) 50 μL of 1:1000 dilution of Alkaline Phosphatase (AP) conjugated antibody (anti-rabbit for all except zeta, which was anti-goat) was then added and the plate incubated for 1 h at room temperature. Washing with dH₂O was then repeated. Finally, 100 μL of pNPP solution in pNPP buffer (2 mM MgCl₂, 100 mM Sodium bicarbonate in water, pH 9.8) was added to all wells and incubated for 8 minutes for α, βI, βII ε, and ζ, or for 15-20 mins for δ (until sufficient coloration is observed). The reaction was stopped by addition of Stop solution (2N NaOH) and the absorbance at 405 nm was read on a Galaxy Plate reader.
For B1, the “relative binding capacity (100-%n, DMSO subtracted)” value was 0%. With B2 the “relative binding capacity (100-%n, DMSO subtracted)” value was 0%. With Ac-AKGIQEVKGGKDAQNLIGISI-NH2 (also called peptide PRE 5) [PRE 5] the “relative binding capacity (100-%n, DMSO subtracted)” value was 0%.

What follows are binders tested against T1, PKC-βI (purified isoform) (assay: competitive ELISA, coated purified PKC-βI, vs anti-PKC βI (SC-209); PRE 50 µM).
Method: as §1, §2, §3
With B1 the “relative binding capacity (100-%n, DMSO subtracted)” value was 0.79%. With B2 the “relative binding capacity (100-%n, DMSO subtracted)” value was 0%. Ac-AKGIQEVKGGKDAQNLIGISI-NH2 (also called peptide PRE 5) [PRE 5] was tested, and the “relative binding capacity (100-%n, DMSO subtracted)” value was 0%.

What follows are binders tested against T2, PKC-δ (purified isoform) (assay: competitive ELISA, coated purified PKC-δ, vs anti-PKC δ (SC-213); PRE 50 µM).
T2 construct: also called PKC-delta
T2 sequence (Q05655 whole entry, stated change not applied, canonical isoform): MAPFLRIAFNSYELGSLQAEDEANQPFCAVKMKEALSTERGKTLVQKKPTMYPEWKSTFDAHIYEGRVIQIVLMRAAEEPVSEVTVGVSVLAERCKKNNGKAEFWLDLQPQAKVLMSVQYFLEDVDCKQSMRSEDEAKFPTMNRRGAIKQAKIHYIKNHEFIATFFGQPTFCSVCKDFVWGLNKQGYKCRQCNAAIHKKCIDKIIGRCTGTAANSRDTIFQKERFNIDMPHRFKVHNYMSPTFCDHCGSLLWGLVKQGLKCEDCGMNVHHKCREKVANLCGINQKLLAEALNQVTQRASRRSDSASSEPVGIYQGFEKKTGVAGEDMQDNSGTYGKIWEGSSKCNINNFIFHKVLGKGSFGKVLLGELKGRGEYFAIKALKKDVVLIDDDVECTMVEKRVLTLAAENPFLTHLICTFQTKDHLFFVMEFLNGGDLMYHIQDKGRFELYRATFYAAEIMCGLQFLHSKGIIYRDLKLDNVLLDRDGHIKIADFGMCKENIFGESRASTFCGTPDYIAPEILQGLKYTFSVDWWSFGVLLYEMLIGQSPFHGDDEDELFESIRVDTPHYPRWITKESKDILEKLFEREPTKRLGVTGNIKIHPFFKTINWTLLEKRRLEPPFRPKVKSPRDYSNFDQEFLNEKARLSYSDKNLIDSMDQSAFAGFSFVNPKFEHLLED
Method: as §1, §2, §3
With B1 the “relative binding capacity (100-%n, DMSO subtracted)” value was 2.26%. B2 was tested, and the “relative binding capacity (100-%n, DMSO subtracted)” value was 0%. With Ac-AKGIQEVKGGKDAQNLIGISI-NH2 (also called peptide PRE 5) [PRE 5] the “relative binding capacity (100-%n, DMSO subtracted)” value was 0.2%.

What follows are binders tested against T2, PKC-δ (purified isoform) (assay: competitive ELISA, coated purified PKC-δ, vs anti-PKC δ (SC-213); PRE 100 µM).
Method: as §1, §2, §3
B1 was tested, and the “relative binding capacity (100-%n, DMSO subtracted)” value was 1.02%. For B2, the “relative binding capacity (100-%n, DMSO subtracted)” value was 0.79%. Ac-AKGIQEVKGGKDAQNLIGISI-NH2 (also called peptide PRE 5) [PRE 5] was tested, and the “relative binding capacity (100-%n, DMSO subtracted)” value was 0%.

These binders were tested against T3, PKC-βII (purified isoform) (Homo sapiens (Human), UniProt P05771 2-621) (assay: competitive ELISA, coated purified PKC-βII, vs anti-PKC βII (SC-210); PRE 50 µM).
T3 construct: also called PKC-beta II; PKC beta 2
T3 sequence (P05771 other isoform, or with tags, fused parts or gaps limits assumed): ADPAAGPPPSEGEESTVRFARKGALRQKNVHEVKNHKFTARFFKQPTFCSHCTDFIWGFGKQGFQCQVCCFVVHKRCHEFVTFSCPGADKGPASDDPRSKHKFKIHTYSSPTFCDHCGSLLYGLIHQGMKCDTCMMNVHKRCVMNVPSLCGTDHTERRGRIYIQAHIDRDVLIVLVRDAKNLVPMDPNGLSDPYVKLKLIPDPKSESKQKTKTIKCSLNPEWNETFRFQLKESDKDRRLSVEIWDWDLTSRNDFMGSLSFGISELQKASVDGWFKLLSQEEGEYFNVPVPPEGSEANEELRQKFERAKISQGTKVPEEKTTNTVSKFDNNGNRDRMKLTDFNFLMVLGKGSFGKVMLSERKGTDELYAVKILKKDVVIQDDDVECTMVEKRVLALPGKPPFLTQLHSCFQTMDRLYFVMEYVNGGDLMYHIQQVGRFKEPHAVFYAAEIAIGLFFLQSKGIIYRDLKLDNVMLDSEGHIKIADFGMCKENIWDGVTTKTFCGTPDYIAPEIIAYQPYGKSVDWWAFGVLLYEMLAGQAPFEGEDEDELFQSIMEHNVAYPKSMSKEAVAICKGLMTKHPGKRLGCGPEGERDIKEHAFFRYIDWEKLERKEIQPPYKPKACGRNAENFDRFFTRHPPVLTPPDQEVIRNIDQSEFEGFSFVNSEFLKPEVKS
Method: as §1, §2, §3
B1 was tested, and the “relative binding capacity (100-%n, DMSO subtracted)” value was 4.55%. For B2, the “relative binding capacity (100-%n, DMSO subtracted)” value was 0%. Ac-AKGIQEVKGGKDAQNLIGISI-NH2 (also called peptide PRE 5) [PRE 5] was tested, and the “relative binding capacity (100-%n, DMSO subtracted)” value was 0%.

The binders below were run against T3, PKC-βII (purified isoform) (assay: competitive ELISA, coated purified PKC-βII, vs anti-PKC βII (SC-210); PRE 200 µM).
Method: as §1, §2, §3
In the case of B1, the “relative binding capacity (100-%n, DMSO subtracted)” value is reported as 0%. With B2 the “relative binding capacity (100-%n, DMSO subtracted)” value was 0%. Ac-AKGIQEVKGGKDAQNLIGISI-NH2 (also called peptide PRE 5) [PRE 5] was tested, and the “relative binding capacity (100-%n, DMSO subtracted)” value was 0%.

Each binder was assayed against T4, PKC-α (purified isoform) (Homo sapiens (Human), UniProt P17252 2-672) (assay: competitive ELISA, coated purified PKC-α, vs anti-PKC α (SC-208); PRE 100 µM).
T4 construct: also called purified PKC-alpha; commercially purified PKC-alpha
Method: as §1, §2, §3
B1 was tested, and the “relative binding capacity (100-%n, DMSO subtracted)” value was 5.16%. B2 was tested, and the “relative binding capacity (100-%n, DMSO subtracted)” value was 0%. Ac-AKGIQEVKGGKDAQNLIGISI-NH2 (also called peptide PRE 5) [PRE 5] was tested, and the “relative binding capacity (100-%n, DMSO subtracted)” value was 0%.

Each binder was assayed against T4, PKC-α (purified isoform) (assay: competitive ELISA, coated purified PKC-α, vs anti-PKC α (SC-208); PRE 200 µM).
Method: as §1, §2, §3
With B1 the “relative binding capacity (100-%n, DMSO subtracted)” value was 0%. With B2 the “relative binding capacity (100-%n, DMSO subtracted)” value was 0%. In the case of Ac-AKGIQEVKGGKDAQNLIGISI-NH2 (also called peptide PRE 5) [PRE 5], the “relative binding capacity (100-%n, DMSO subtracted)” value is reported as 0%.

What follows are binders tested against T3, PKC-βII (purified isoform) (assay: competitive ELISA, coated purified PKC-βII, vs anti-PKC βII (SC-210); PRE 100 µM).
Method: as §1, §2, §3
With B1 the “relative binding capacity (100-%n, DMSO subtracted)” value was 0%. With B2 the “relative binding capacity (100-%n, DMSO subtracted)” value was 1.63%. Ac-AKGIQEVKGGKDAQNLIGISI-NH2 (also called peptide PRE 5) [PRE 5] was tested, and the “relative binding capacity (100-%n, DMSO subtracted)” value was 0%.

The binders below were run against T1, PKC-βI (purified isoform) (assay: competitive ELISA, coated purified PKC-βI, vs anti-PKC βI (SC-209); PRE 200 µM).
Method: as §1, §2, §3
B1 was tested, and the “relative binding capacity (100-%n, DMSO subtracted)” value was 0%. B2 was tested, and the “relative binding capacity (100-%n, DMSO subtracted)” value was 0%. Ac-AKGIQEVKGGKDAQNLIGISI-NH2 (also called peptide PRE 5) [PRE 5] was tested, and the “relative binding capacity (100-%n, DMSO subtracted)” value was 0%.

Each binder was assayed against T2, PKC-δ (purified isoform) (assay: competitive ELISA, coated purified PKC-δ, vs anti-PKC δ (SC-213); PRE 200 µM).
Method: as §1, §2, §3
With B1 the “relative binding capacity (100-%n, DMSO subtracted)” value was 23.5%. B2 was tested, and the “relative binding capacity (100-%n, DMSO subtracted)” value was 17.9%. With Ac-AKGIQEVKGGKDAQNLIGISI-NH2 (also called peptide PRE 5) [PRE 5] the “relative binding capacity (100-%n, DMSO subtracted)” value was 4.31%.

The binders below were run against T4, PKC-α (purified isoform) (assay: competitive ELISA, coated purified PKC-α, vs anti-PKC α (SC-208); PRE 50 µM).
Method: as §1, §2, §3
For B1, the “relative binding capacity (100-%n, DMSO subtracted)” value was 3.29%. B2 was tested, and the “relative binding capacity (100-%n, DMSO subtracted)” value was 0%. With Ac-AKGIQEVKGGKDAQNLIGISI-NH2 (also called peptide PRE 5) [PRE 5] the “relative binding capacity (100-%n, DMSO subtracted)” value was 0%.

From patent publication US20110039770A1 (PHARMAGAP, published 2011)
